Earlier results, collected in patent US6416987B1, “Mutants of thymidylate synthase and uses thereof” (Sloan Kettering Institute for Cancer Research, priority 1997, dated 2002).

Target: human TS (Homo sapiens, UniProt P04818, Y33H)
Settings: vs wild-type TS; cited from earlier work

human TS, sequence (P04818 whole entry Y33H): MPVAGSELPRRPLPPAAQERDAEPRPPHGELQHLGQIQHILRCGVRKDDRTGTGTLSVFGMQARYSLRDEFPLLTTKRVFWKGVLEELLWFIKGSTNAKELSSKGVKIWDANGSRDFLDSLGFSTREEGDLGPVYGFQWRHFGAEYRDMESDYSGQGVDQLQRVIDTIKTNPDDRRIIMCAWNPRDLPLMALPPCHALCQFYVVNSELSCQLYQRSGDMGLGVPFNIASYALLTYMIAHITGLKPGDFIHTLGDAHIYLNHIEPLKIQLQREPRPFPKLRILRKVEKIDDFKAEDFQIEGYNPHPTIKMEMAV

B1: Tyr33 to His33: literature human TS mutant found in a human colon tumor cell line (protein, UniProt P04818 2-313, looked up, variant Y33H)
Thymidylate synthase: PVAGSELPRRPLPPAAQERDAEPRPPHGELQHLGQIQHILRCGVRKDDRTGTGTLSVFGMQARYSLRDEFPLLTTKRVFWKGVLEELLWFIKGSTNAKELSSKGVKIWDANGSRDFLDSLGFSTREEGDLGPVYGFQWRHFGAEYRDMESDYSGQGVDQLQRVIDTIKTNPDDRRIIMCAWNPRDLPLMALPPCHALCQFYVVNSELSCQLYQRSGDMGLGVPFNIASYALLTYMIAHITGLKPGDFIHTLGDAHIYLNHIEPLKIQLQREPRPFPKLRILRKVEKIDDFKAEDFQIEGYNPHPTIKMEMAV
drop in kcat: 8 fold
